Bounds are passed on as bounds.

This is an account of results in US20260021140A1 (SCG CELL THERAPY PTE, published 2026).

In assay [1] the target is S20 epitope peptide presented by HLA-A*02:01 on HepG2 cells (Hepatitis B virus, genotypes A and D; …). In words: cell-based or functional assay.
For assay [2], the target named is T1, HBV surface antigen (HBsAg), S20-28, genotypes B and C peptide on HLA-A*02:01 (human).
T1 peptide: FLLTKILTI
The assay is described as follows: cytokine release.

B1: B01 TCR (HBV S20 TCR, modified, expressed on B01 TCR-T cells) (TCR, V domains shown)
V domain 1: SQELEQSPQSLIVQEGKNLTINCTSSKTLYGLYWYKQKYGEGLIFLMMLQKGGEEKSHEKITAKLDEKKQQSSLHITASQPSHAGIYLCGADTSTDKLIFGTGTRLQVFP
V domain 2: KAGVTQTPRYLIKTRGQQVTLSCSPISGHRSVSWYQQTPGQGLQFLFEYFSETQRNKGNFPGRFSGRQFSNSRSEMNVSTLELGDSALYLCASSHGGAYEQYFGPGTRLTVTE
With B1, the “killing ratio on HepG2-LMS-LG cells (RTCA, 48 h, E:T 2:1, 1:2, 1:8)” value in assay [1] was greater than 60%.

B2: A01 TCR (TCR, V domains shown)
Valpha: QQGEEDPQALSIQEGENATMNCSYKTSINNLQWYRQNSGRGLVHLILIRSNEREKHSGRLRVTLDTSKKSSSLLITASRAADTASYFCATDERDDMRFGAGTRLTVKP
Vbeta: GVIQSPRHEVTEMGQEVTLRCKPISGHDYLFWYRQTMMRGLELLIYFNNNVPIDDSGMPEDRFSAKMPNASFSTLKIQPSEPRDSAVYFCASSLNTEAFFGQGTRLTVV
Take B2: the binding result in assay [2] is on record as “recognises”.

B3: C01 TCR (TCR, V domains shown)
Valpha: QQGEEDPQALSIQEGENATMNCSYKTSINNLQWYRQNSGRGLVHLILIRSNEREKHSGRLRVTLDTSKKSSSLLITASRAADTASYFCATDAYGQNFVFGPGTRLSVLP
Vbeta: GVIQSPRHEVTEMGQEVTLRCKPISGHDYLFWYRQTMMRGLELLIYFNNNVPIDDSGMPEDRFSAKMPNASFSTLKIQPSEPRDSAVYFCASGSNTEAFFGQGTRLTVV
B3: the binding result in assay [2] is recorded as “recognises”.

B4: B01 TCR (TCR, V domains shown)
Valpha: QELEQSPQSLIVQEGKNLTINCTSSKTLYGLYWYKQKYGEGLIFLMMLQKGGEEKSHEKITAKLDEKKQQSSLHITASQPSHAGIYLCGADTSTDKLIFGTGTRLQVFP
Vbeta: GVTQTPRYLIKTRGQQVTLSCSPISGHRSVSWYQQTPGQGLQFLFEYFSETQRNKGNFPGRFSGRQFSNSRSEMNVSTLELGDSALYLCASSHGGAYEQYFGPGTRLTVT
Turning to B4, the binding result in assay [2] is “recognises”.

B5: C01 TCR (HBV S20 TCR, modified, expressed on C01 TCR-T cells) (TCR, V domains shown)
V domain 1: SQQGEEDPQALSIQEGENATMNCSYKTSINNLQWYRQNSGRGLVHLILIRSNEREKHSGRLRVTLDTSKKSSSLLITASRAADTASYFCATDAYGQNFVFGPGTRLSVLP
V domain 2: GVIQSPRHEVTEMGQEVTLRCKPISGHDYLFWYRQTMMRGLELLIYFNNNVPIDDSGMPEDRFSAKMPNASFSTLKIQPSEPRDSAVYFCASGSNTEAFFGQGTRLTVVE
On to B5, for which, in assay [1], the “killing ratio on HepG2-LMS-LG cells (RTCA, 48 h, E:T 2:1, 1:2, 1:8)” value is greater than 60%.
